The values below come from patent publication US20180265915A1, “TRANSCRIPTION FACTOR DECOYS” (priority 2008, published 2018).

Entries after “also recorded” stand apart in the source; their conditions may differ. {P} = phosphate

The test system of data set [1] is Staphylococcus aureus EMRSA 16. In words: Mouse sepsis model, tissue burden study. Format: in vivo. Here is the method:
The mouse sepsis study was performed by Euprotec (UK). Mice used in this study, male CD1 mice were supplied by Charles River (Margate UK) and were specific pathogen free (16-18 g at delivery). All mice weighed 22-25 g at the beginning of the experiment.
For the tissue burden study, animals were treated in groups of 8 mice per treatment group, therefore 48 in total for the study. 2×10 ml cultures of Staphylococcus aureus EMRSA 16 were prepared and placed on orbital shaker (220 rpm) overnight at 37° C. The following day, the Staphylococcus aureus EMRSA 16 cultures were removed from shaker, pelleted and washed twice before being resuspended in saline to an OD of 0.132 (1.5×10^8 cfu/ml). This stock solution of Staphylococcus aureus EMRSA 16 was then further diluted 1:1.5 in saline (1×10^8 cfu/ml) i.e. 2.0×10^7 bacteria per mouse. 48 mice were then infected with 0.2 ml of the 1.0×10^8/mL suspension. The number of Staphylococcus aureus EMRSA 16 bacteria per mL in the remainder of the suspensions after inoculation was also counted to confirm infection load. Mice were treated 1, 9 and 17 hours post infection with either compound or vehicle, though vancomycin was only administered after 1h. The treatments were as previously a mixture of TFD/DOTAP/Lysostaphin using a concentration of InM/kg TFD in a 5:1 molar ratio with DOTAP and 63 μg/kg Lysostaphin. After 25 hours post infection all animals were weighed and then euthanized. The kidneys were immediately removed and homogenised in ice cold sterile phosphate buffered saline+0.05% Tween 80. Organ homogenates were quantitatively cultured onto CLED agar and incubated at 37° C. for up to 3 days and colonies counted. The data from the culture burdens was analysed by the Kruskal-Wallis test using Stats Direct.

The next data set deals with E. coli. Briefly: FabB TFD growth assay with cerulenin in LB, polymixin co-transfectant. Format: cell-based, Escherichia coli. Here is the method:
For example, a FabB decoy which targets the regulation of genes essential for fatty acid synthesis may be tested against suitable strain, e.g. E. coli grown in e.g. Luria-Bertani LB media (1% [w/v] Bacto-tryptone, 0.5% [w/v] Yeast extract, 1% [w/v] NaCl) in the presence of an antibiotic which acts on the process of fatty acid synthesis, e.g. Cerulenin.
The effect of TFDs on the growth of E. coli bacterial cultures was measured as described in Example 4.1 with a few modifications: the media used was LB; the co-transfectant used was 40 nM polymixin, rather than gramicidin; the media was also supplemented with 10 μg/ml Cerulenin (CER). CER is an antibiotic that acts on fatty acid synthesis.

The next data set deals with K. pneumoniae. Briefly: KP_Sig TFD growth assay in vitro. Format: cell-based, Klebsiella pneumoniae. The note with it: PCR_TFD, transfected using a cell penetrating peptide. The text has this: Cells were transfected as described in Example 13, using a cell penetrating peptide. […] The two controls used were: untreated cells (K. pneumoniae) and a control TFD consisting of a scrambled sequence.

The test system of the next data set is S. aureus. Briefly: Growth of S. aureus transfected by electroporation under conditions of stress. The note with it: BHI or LB media with 30 mM KOH, vs mock-electroporation or unrelated sequence. Format: cell-based, Staphylococcus aureus. The protocol:
For example, stress response can be induced in a suitable strain e.g. S. aureus by growing in, e.g. LB media under conditions of stress, e.g. alkali conditions. For example LB media containing KOH, e.g. at 30 mM may be used. Untreated bacteria grow well in this media, due to the induction of the stress response by the alkali conditions, whereas those treated with the SA_sigB decoy, targeting the regulation of sigB which is a major part of the regulatory response to stress, grow poorly.
Decoy polynucleotides were transfected into S. aureus by electroporation. Bacterial cells were prepared by standard methods. Briefy, cells were grown to early exponential phase in LB media at 37° C. as defined as reaching an Absorbance of 0.3 at […]. The cells were chilled to 4° C. and harvested by low speed centrifugation and washed three times in a similar volume of sterile, ice-cold 10% (v/v) glycerol. Finally the cells were resuspended in a tenth of their original volume in 10% glycerol. […] 200 μl of cells were aliquoted into wells of a 96 well plate that was incubated at 37° C. with moderate shaking, growth was monitored by measuring absorbance.

The subject of a further data set is EMRSA15. Briefly: DB-TFD growth assay on EMRSA15 with Lysostaphin co-treatment. Format: cell-based, Staphylococcus aureus. The conditions noted are these: 10 nM DB-TFD; 0.5 to 2.5 pg/ml Lysostaphin. Here is the method: Growth assays were performed as described for Example 7.1 with the sole difference being that the media was supplemented with between 0.5 and 2.5 pg/ml Lysostaphin instead of Gramicidin. Lysostaphin is a lysozyme-like enzyme that is specific for the walls of S. aureus.

Another data set relates to EMRSA-16. Briefly: WalR_TFD in vitro growth and viable count assays on EMRSA-16. The note with it: for effect on growth of EMRSA-16 in vitro: 1 nM TFD, DOTAP, Lysostaphin, BHI. Format: cell-based, Staphylococcus aureus. Here is the method:
S. aureus EMRSA16 cultures were grown and maintained in BHI media (Becton Dickenson). Frozen stocks were prepared by mixing equal volumes of a culture in early exponential growth (OD of 0.3 at A600) with 50% glycerol and freezing at −80° C.
TFD-DOTAP complexes were formed by mixing 1 ug of TFD with 2 μg of DOTAP (Roche) and incubating at room temperature for 10 min on the bench. The TFD complex was then mixed with inoculated medium supplemented with 10 ng/ml Lysostaphin (Sigma; L9043), aliquoted into 96 well flat-bottomed plates and growth was analysed by culturing at 37° C. with shaking in a BioTek plate reader.
EMRSA-16, an MRSA strain endemic in UK hospitals, was used in the study (Cox, Mallaghan et al. 1995). TFDs were mixed with a commercially available lipid formulation, DOTAP, and mixed with media inoculated with EMRSA-16 and Lysostaphin. Lysostaphin is a lysozyme agent that acts on the walls of S. aureus, use of it in this experiment was to thin the outer peptidoglycan layer of the bacteria and allow the TFD to transfect the cell following fusion of the DOTAP carrier with the exposed inner membrane of the bacterium. […] The bacteria that were not killed by WalR_TFD treatment were sub-cultured in order to determine whether there was any incidence of resistance. The process was repeated a total of four times and both the reduction in viable counts (FIG. 17B) and in vitro growth curves were recorded (FIG. 17C, black squares: bacteria in fourth passage).
In order to determine whether TFDs killed bacteria on contact or needed prolonged exposure to work, EMRSA-16 were transfected with 1 nM WalR_TFD/DOTAP complex and incubated for 30 minutes before being microdiluted into fresh media, without any TFD complexes or Lysostaphin.

Data set [2] deals with clinically-isolated MRSA strain MRSA-5. In words: Dumbbell Sig TFD growth assay on a clinically-isolated MRSA strain. Format: cell-based, Staphylococcus aureus. The conditions noted are these: 10 nM TFD, dumbbell configuration. The protocol:
A growth assay was performed as described in Example 5.1 using the Sig TFD in its dumbbell configuration and a clinically-isolated MRSA strain.

Setting [3] is: statistical analysis of in vivo results.

As to `CN[C@H](CC(C)C)C(=O)N[C@H]1C(=O)N[C@@H](CC(N)=O)C(=O)N[C@H]2C(=O)N[C@H]3C(=O)N[C@H](C(=O)N[C@H](C(=O)O)c4cc(O)cc(O)c4-c4cc3ccc4O)[C@H](O)c3ccc(c(Cl)c3)Oc3cc2cc(c3O[C@@H]2O[C@H](CO)[C@@H](O)[C@H](O)[C@H]2O[C@H]2C[C@](C)(N)[C@H](O)[C@H](C)O2)Oc2ccc(cc2Cl)[C@H]1O` [Vancomycin, vancomycin, reference compound], in data set [1] (setting [3]), the “Kruskal-Wallis all pairwise comparisons (Dwass-Steel-Chritchlow-Fligner) of kidney burden, versus Vehicle” value was determined as 0.0173.
As for `C/C=C/C/C=C/CCC(=O)[C@H]1O[C@H]1C(N)=O` [cerulenin, reference compound], the “effect of cerulenin on growth of E. coli” value in the data set on E. coli (10 μg/ml Cerulenin) is listed as “no noticeable effect on growth”. The “cerulenin concentration at which it begins to inhibit cell growth” value in the data set on E. coli (in the presence of the control TFD) was found to be 20 µg/mL.
With “KP_Sig: sigma 54 binding site from the K. pneumoniae glnA promoter, SEQ ID NO: 59, in a PCR_TFD (DNA TGGCACAGATTTCGCT; listed as DNA, chemistry not fully specified; listed as Klebsiella pneumoniae)”, the entries for the “effect on K. pneumoniae cell growth in vitro” value with K. pneumoniae and in the data set with K. pneumoniae (listed as KP_Sig TFD) were “prevented cell growth in vitro” and “kills K. pneumoniae in vitro”, respectively.
On to “LytM TFD: YycG/YycF binding site in LytM promoter, SEQ ID NO: 7 (DNA GCTATTTTGTAATGACAATGTAATGAGTTTAGTAAAAA; transcription factor decoy, made by PCR or oligonucleotide ligation, further chemistry not given here; listed as Staphylococcus aureus)”, for which the “growth of S. aureus under conditions of stress” value in the data set on S. aureus is on record as “capable of slowing the growth”.

B1: WalR_TFD: dumbbell TFD containing the binding site for the WalR protein as in the lytM promoter, SEQ ID NOs: 48 & 49 (nucleic acid, listed as Staphylococcus aureus)
chain 1: CTTGGTTTTTCCAAGTAATGAATGAGTTTAAAGCCCATGTAAAAGGGGTATCAGTAC
chain 2: CCCTCTTTTTGAGGGGTACTGATACCCCTTTTACATGGGCTTTAAACTCATTCATTA
modifications: dumbbell structure, further chemistry not given here
Consider B1, for which the “inhibition of bacterial growth of EMRSA15” value (shortened to “inhibition … of EMRSA15”) in the data set on EMRSA15 was “prevents growth of EMRSA15”. In the data set on EMRSA-16, the “effect on growth of EMRSA-16 in vitro” value is “prevented growth of EMRSA-16”. In the data set with EMRSA-16 (1 nM, incubated 30 minutes then diluted into fresh media without TFD or Lysostaphin, followed 48 hours), the “growth after limited contact” value is on record as “unable to grow; also recorded: no growth was observed”. Besides, the “total viable counts, reduction in number of living cells” value in the data set with EMRSA-16 (after in vitro growth experiment) is listed as “reduced the number of living cells by five-fold orders of magnitude”. For the same molecule, in the data set on EMRSA-16 (in vitro and in vivo), the “bacteriocidal activity against MRSA” value is recorded as “rapid bacteriocidal activity at nanomolar concentrations”. The “development of resistance to TFD-mediated killing” value in the data set with EMRSA-16 (surviving bacteria sub-cultured and re-treated, repeated rounds) is “No resistance mechanism has been detected; also recorded: no evidence for the development of a resistance mechanism”. For the same molecule, the “reduction in kidney burden of EMRSA-16” value in data set [1] (mice, systemic injection 1, 9 and 17 hours post infection, 1 nM TFD complex, compared to Scr_TFD control) is “as effective as vancomycin in killing EMRSA-16”. In addition, in data set [1] (setting [3]), the “Kruskal-Wallis all pairwise comparisons (Dwass-Steel-Chritchlow-Fligner) of kidney burden, versus Vancomycin” value is 0.2549 and the “Kruskal-Wallis all pairwise comparisons (Dwass-Steel-Chritchlow-Fligner) of kidney burden, versus Vehicle” value was 0.0062.

B2: SA3 TFD: Sig dumbbell TFD from phosphorylated oligonucleotides SEQ ID NOs: 40 & 41 (nucleic acid, listed as Staphylococcus aureus)
chain 1: CTTGGTTTTTCCAAGGAAGATTAGAAATTATTTCGATGGGTATATAATA
chain 2: CCGTCTTTTTGACGGTATTATATACCCATCGAAATAATTTCTAATCTTC
modifications: 5' {P}, sugars by position and backbone not given here; further chemistry not fully specified
Turning to B2, in data set [2], the “inhibition of cell growth of clinically-isolated MRSA strain” value was “repress the growth”. In addition, the “inhibition … of EMRSA15” value in the data set with EMRSA15 is “capable of inhibiting bacterial growth”.

B3: Scr_TFD: TFD containing a scrambled version of the WalR binding site, SEQ ID NOs: 46 & 47 (nucleic acid, listed as Staphylococcus aureus)
chain 1: CTTGGTTTTTCCAAGGTAATATGACAAGATTGTAAATGACCTAGTTGAGAGATGCCA
chain 2: CCCTCTTTTTGAGGGTGGCATCTCTCAACTAGGTCATTTACAATCTTGTCATATTAC
modifications: dumbbell structure, further chemistry not given here
On to B3, for which the “inhibition … of EMRSA15” value in the data set with EMRSA15 is listed as “no effect”. In addition, the “effect on growth of EMRSA-16 in vitro” value in the data set with EMRSA-16 is “no detectable effect on bacterial growth”. In data set [1] (setting [3]), the “Kruskal-Wallis all pairwise comparisons (Dwass-Steel-Chritchlow-Fligner) of kidney burden, versus 1 nM WalR_TFD” value is 0.0043; the “Kruskal-Wallis all pairwise comparisons (Dwass-Steel-Chritchlow-Fligner) of kidney burden, versus Vancomycin” value is recorded as 0.0062; the “Kruskal-Wallis all pairwise comparisons (Dwass-Steel-Chritchlow-Fligner) of kidney burden, versus Vehicle” value is 0.7804.
